T1: OAS1 p42 isoform (transcript variant 2), wild type (human), P00973-2
T1 sequence: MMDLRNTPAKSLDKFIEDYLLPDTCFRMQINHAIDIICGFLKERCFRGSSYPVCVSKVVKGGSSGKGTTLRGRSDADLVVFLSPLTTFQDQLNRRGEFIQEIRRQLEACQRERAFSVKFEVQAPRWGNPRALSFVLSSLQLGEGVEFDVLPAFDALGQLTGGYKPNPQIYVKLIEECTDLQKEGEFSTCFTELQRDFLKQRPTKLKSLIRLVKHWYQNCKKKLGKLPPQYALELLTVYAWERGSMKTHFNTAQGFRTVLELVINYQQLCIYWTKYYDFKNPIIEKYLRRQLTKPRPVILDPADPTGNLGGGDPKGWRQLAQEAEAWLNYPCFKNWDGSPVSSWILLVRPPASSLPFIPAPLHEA

T2: OAS1 p42 isoform (transcript variant 2), wild type (human, UniProt P00973-2 1-364)
T2 sequence: T1 sequence

B1: WNV SLII/III (structured_RNA)
RNA: GCUGUUUCUUAGCACGAAGAUCUCGAUGUCUAAGAAACCAGGAGGGCCCGGCAAGAGCCGGGCUGUCAAUAUGCU

Experiments:
[1] = system: T1, OAS1 p42 isoform (transcript variant 2), wild type (human), P00973-2; test: OAS1 activation kinetics (Kapp, PPi assay); details: pH 7.5, 10 min at room temperature (~20 C)
OAS1 S162G (human) = test: OAS1 activation kinetics (Kapp, PPi assay); details: pH 7.5, 10 min at room temperature (~20 C)
[2] = target: T2, OAS1 p42 isoform (transcript variant …); test: OAS1 activation kinetics (Kapp, PPi assay); 400 nM OAS1; […], pH 7.5, 10 min at room temperature (~20 C); […]; details: protein: recombinant; tags: none after TEV cleavage of N-terminal GNSHT tag (GB1, NusA, Streptavidin, 6xHis); label: none (SYBR Gold stain); two stem loops
[3] = target: T2, OAS1 p42 isoform (transcript variant …); test: OAS1 activation kinetics (Kapp NA); 400 nM OAS1; no detectable affinity; […], pH 7.5, 10 min at room temperature (~20 C); […]; details: protein: recombinant; tags: none after TEV cleavage of N-terminal GNSHT tag (GB1, NusA, Streptavidin, 6xHis); label: none (SYBR Gold stain); stem loop

Row | Molecule | K half [1] | binding result [3] | further results
1 | WNV SLI | 5830 nM | – | –
2 | WNV SLI/II | 528 nM | – | –
3 | WNV SLI/II/III | 1450 nM | – | K half (OAS1 S162G (human)): 1490 nM
4 | B1 | – | – | apparent K (half saturation) [2]: 5.78 ± 0.452 µM
5 | AGGAGGGCCCGGCAAGAGCCGGGCUGUCAAUAUGCU (structured_RNA) [WNV SLIII] | – | no binding | –
6 | GCUGUUUCUUAGCACGAAGAUCUCGAUGUCUAAGAAACC (structured_RNA) [WNV SLII] | – | no binding | –
